In publication doi:10.1101/2024.02.15.580443:
Like-named read-outs stand apart in the source and are kept apart here.

Key:
[1] = target: ComM from Legionella pneumophila (C-terminal His6-tag) (Legionella pneumophila Paris) (UniProt Q5ZXZ0); test: cryo-EM structure
[2] = target: ComM from Legionella pneumophila (C-terminal His6-tag) (Legionella pneumophila Paris) (UniProt Q5ZXZ0); test: cryo-EM structure; remark: listed apart in the source
[3] = target: RadA from Streptococcus pneumoniae (strep-tagged, for cryoEM) (Streptococcus pneumoniae) (UniProt Q8DRP0); test: cryo-EM structure
[4] = target: RadA R301A mutant from Streptococcus pneumoniae (for biochemical assays) (Streptococcus pneumoniae (R800 derivative strain)) (UniProt Q8DRP0)

## ComM from Legionella pneumophila (C-terminal His6-tag) (from UniProt Q5ZXZ0 1-503) (enzyme)
[1]
  stoichiometry N: 6
[2]
  stoichiometry N: 12

## RadA from Streptococcus pneumoniae (strep-tagged, for cryoEM) (from UniProt Q8DRP0 1-420) (enzyme)
[3]
  stoichiometry N: 6

## RadA R301A mutant from Streptococcus pneumoniae (for biochemical assays) (from UniProt Q8DRP0 2-419) (enzyme)
[4]
  stoichiometry N: 6
